The record followed here is US20060204496A1 (published 2006).

Sequences and labels used below:
B1: AR2-13 (anti-AR2 chain scFv clone) (scFv, V domains shown)
VH: QVQLQQSGGELVRPGTSVKVSCKASGYAFTNYLIEWVKQRPGQGLDWIGMINPGSGGTKCNKKFKGKVTLTADKSSSTAYMHLSSLTSDDSAVYFCARSGWVSAMDYWGQGTSVTVSS
VL: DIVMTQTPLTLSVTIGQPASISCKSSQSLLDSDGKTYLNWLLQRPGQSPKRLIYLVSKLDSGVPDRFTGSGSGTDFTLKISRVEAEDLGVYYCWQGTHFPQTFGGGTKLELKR
notes: scFv fused to f1 phage gene 3 product on phage in the ELISA
B2: AR2-45 (anti-AR2 chain scFv clone) (scFv, V domains shown)
VH: QVQLQQSGVELVRPGTSVKVSCKASGYAFTNYLIEWVKQRPGQGLDWIGMINPGSGGTKCNKKFKGKVTLTADKSSSTAYMHLSSLTSDDSAVYFCARSGWVYAMDYWGQGTSVTVSS
VL: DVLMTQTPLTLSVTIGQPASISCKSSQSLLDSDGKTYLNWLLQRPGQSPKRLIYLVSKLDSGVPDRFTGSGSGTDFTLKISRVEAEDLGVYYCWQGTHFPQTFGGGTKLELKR
notes: as for B1
B3: AR2-31 (anti-AR2 chain scFv clone) (scFv, V domains shown)
VH: EVQLQQSGPELVRPGVSVKISCKGSSYKFTDYAMHWVKQSHAKSLEWIGVISTYYGNVKYNQKFKGKATMTVDKSSSTAYMELARLTSEDSAVYYCARSYGSYLDYWGQGTSVTVSS
VL: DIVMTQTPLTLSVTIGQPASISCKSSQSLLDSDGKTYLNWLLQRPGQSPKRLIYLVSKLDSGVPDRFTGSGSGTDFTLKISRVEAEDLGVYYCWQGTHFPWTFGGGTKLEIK
notes: as for B1
B4: AR2-22 (anti-AR2 chain scFv clone) (scFv, V domains shown)
VH: QVQLQQSGPELVRPGVSVKISCKGSGYRFTDYAIHWVKQSHAKSLEWIGVISTYYGNTRYNQKFKGKATMTVDKSSSTAYMELASLTSEDSVIYYCARSGGSLMDYWGQGTSVTVSS
VL: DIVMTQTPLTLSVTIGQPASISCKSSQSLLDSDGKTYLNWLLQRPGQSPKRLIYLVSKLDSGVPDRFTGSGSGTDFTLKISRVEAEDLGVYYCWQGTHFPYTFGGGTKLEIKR
notes: as for B1
B5: AR2-40 (anti-AR2 chain scFv clone) (scFv, V domains shown)
VH: QVQLQQSGPELVRPGVSVKISCKGSSYKFTDYAMHWVKQSHAKSLEWIGVISTYYGNVKYNQKFKGKATMTVDKSSSTAYMELARLTSEDSAVYYCARSSGSYLDYWGQGTSVTVSS
VL: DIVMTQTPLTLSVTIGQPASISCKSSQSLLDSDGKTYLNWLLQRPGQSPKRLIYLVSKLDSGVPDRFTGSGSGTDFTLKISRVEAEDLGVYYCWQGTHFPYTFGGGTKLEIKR
notes: as for B1
B6: AR2-43 (anti-AR2 chain scFv clone) (scFv, V domains shown)
VH: QVQLQQSGPELVRPGVSVKISCKGSGYTFTDYAMHWVKQSHAKSLEWIGVISTYYSNTRYNQKFKGKATMTVDKSSSTAYMELARLTSEDSAIYYCVRSGGSNMDYWGQGTSVTVSS
VL: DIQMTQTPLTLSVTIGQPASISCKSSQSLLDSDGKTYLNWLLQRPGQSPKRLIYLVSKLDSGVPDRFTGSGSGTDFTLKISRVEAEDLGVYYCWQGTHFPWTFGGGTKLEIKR
notes: as for B1
B7: AR2-44 (anti-AR2 chain scFv clone) (scFv, V domains shown)
VH: QVQLQQSEAELVRPETSVKVSCKASGYSFRNYLIEWVKQRPGQGLEWIGVINPGSGNTKYNEKFKGKATLTADKSSSTAYMQLSSLTSDDSAVYFCARDGYYLGTMDYWGQGTSVTVSS
VL: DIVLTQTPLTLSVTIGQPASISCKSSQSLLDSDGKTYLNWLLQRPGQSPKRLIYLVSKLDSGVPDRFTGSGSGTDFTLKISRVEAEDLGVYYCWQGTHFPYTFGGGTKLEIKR
notes: as for B1
B8: AR2-33 (anti-AR2 chain scFv clone) (scFv, V domains shown)
VH: QVQLQQSGAELVRPGTSVKVSCKASGYAFINNLIEWVQQRPGQGLEWIGVINPGSGNVKYNEKFKGKATLTADKSSSTAYMQLSSLTSDDSAVYFCARDGYYLGTMDHWGQGTSVTVSS
VL: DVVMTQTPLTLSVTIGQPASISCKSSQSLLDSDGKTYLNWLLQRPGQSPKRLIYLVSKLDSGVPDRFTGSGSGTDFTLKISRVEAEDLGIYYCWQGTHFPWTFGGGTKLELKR
notes: as for B1
B9: AR2-14 (anti-AR2 chain scFv clone) (scFv, V domains shown)
VH: QVQLQQSGAELVRPGTSVKVSCKASGYAFTNYLIEWVKQRPGQGPEWIGVINPGSGNIRYNGKFKGKATLTADKSSSTAYMQLSSLTSDDSAVYFCARDAYYVGAMDYWGQGTSVTVSS
VL: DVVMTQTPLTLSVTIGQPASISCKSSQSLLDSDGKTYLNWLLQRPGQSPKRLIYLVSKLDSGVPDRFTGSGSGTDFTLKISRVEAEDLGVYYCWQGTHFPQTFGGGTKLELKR
notes: as for B1
B10: AR2-37 (anti-AR2 chain scFv clone) (scFv, V domains shown)
VH: QVQLQQSGPELVRPGVSVKISCKGSGYTFTDYAIHWVRQSHAQSLEWIGVIGTYSGNRNYNQKFKGKATMTVDKSSSTAYMELARLTSEDSAIYYCARSAGYSLDFWGQGTSVTVSS
VL: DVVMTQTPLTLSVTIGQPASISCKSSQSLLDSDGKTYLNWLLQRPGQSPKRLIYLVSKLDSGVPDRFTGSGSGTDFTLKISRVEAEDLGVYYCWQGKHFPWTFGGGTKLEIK
notes: as for B1
B11: AR1-24 (anti-AR1 chain scFv clone) (scFv, V domains shown)
VH: QVQLQQSGPELEKPGASVKISCKASGYSFSDYNMNWVKQSNGKSLEWIGNIDPYNGDTNYNQKFKGKATLTLDKSSSTAYMQLKSLTSEDSAVYFCARSRGWLLPFAYWGQGTLVTVSA
VL: DILMTQSQKFMSTSVGDRVSVTCKASQNVGINVAWYQQKPGQSPKALIYSASYRYSGVPDRFTGSGSGTDFTLTISNVQSEDLAEYFCQQYNSYPLTFGGGTKLEIKR
notes: as for B1
B12: AR1-41 (anti-AR1 chain scFv clone) (scFv, V domains shown)
VH: QVQLKQSGAELVRPGASVRLSCKASGYTFTFYWINWIKQRPEQGLEWIGRIDPYDSETRYNQKFKDKAILTVDKYSSTAYMQLSSLTSEDSAVYYCAKGVYDGHWFFDVWGAGTSVTVSS
VL: DIVMTQSHKFMSTSVGDRVSITCKASQDVSTAVAWYQQKPGQSPKLLIYSASYRYTGVPARFSGSGSGTDFTFTISSVQTEDLAVYYCQQHYRTPPTFGGGTKLELKR
notes: In the phage ELISA it stood as a mouse scFv fused to the f1 phage gene 3 product on phage

The first assay has as its target T1, AR2FLAG (solubilized receptor: extracellular domain of human AR2 with FLAG tag at the C terminus), … (human, UniProt P48551 27-243, biotin-labeled (NHS-PEO4-Biotin)).
T1 construct: extracellular domain; captured on streptavidin plates for the phage ELISA; also called biotin-labeled AR2FLAG; AR2 chain of type-I interferon receptor; not shown: FLAG tag at the C terminus
T1 sequence (looked up): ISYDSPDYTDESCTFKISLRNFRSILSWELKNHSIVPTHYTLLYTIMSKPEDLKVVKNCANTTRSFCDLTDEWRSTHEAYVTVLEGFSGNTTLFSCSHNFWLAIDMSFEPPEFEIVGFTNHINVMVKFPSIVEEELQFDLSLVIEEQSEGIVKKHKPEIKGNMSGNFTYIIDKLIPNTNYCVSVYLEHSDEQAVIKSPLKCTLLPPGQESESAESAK
The experiment in a line: phage ELISA, biotin-labeled AR2FLAG on streptavidin plates, anti-M13-HRP detection. Here is the method: (§1) The single colonies described above were inoculated to 150 μl of 2×YTAG and cultured at 30° C. overnight. 51 μl of the cultures was inoculated to 500 μl of 2×YTAG, and incubated at 37° C. for two hours. Then 100 μl of 2×YTAG containing 2.5×10⁹ pfu of helper phage and 0.3 μl of 1 mol/l IPTG was added to the cultures, and allowed to stand at 37° C. for 30 minutes. The cultures were then incubated at 30° C. overnight, and their culture supernatant was subjected to ELISA. StreptaWell 96-well microtiter plates (Roche) were coated overnight with 100 μl of PBS containing 1.0 μg/ml biotin-labeled AR1FLAG or AR2FLAG The plates were washed with PBST to remove free antigens, and then blocked overnight with 200 μl of 2% M-PBS. 2% M-PBS was removed and the culture supernatant was added to the plates. The plates were allowed to stand for 40 minutes to bind with the antibodies. After the plates were washed, bound phages were detected using HRP-conjugated anti-M13 antibody (Amersham Pharmacia Biotech) diluted with 2% M-PBS and BM blue POD substrate (Roche). The reaction was stopped by adding sulfuric acid, and absorbance was determined at 450 nm.
In the case of B1, the binding result was “binds”.

For B2, the binding result was “binds”.

For B3, the binding result is listed as “binds”.

As for B4, the binding result is “binds”.

Consider B5, for which the binding result is reported as “binds”.

Turning to B6, the binding result was “binds”.

In the case of B7, the binding result is recorded as “binds”.

Turning to B8, the binding result was “binds”.

B9: the binding result is listed as “binds”.

Turning to B10, the binding result is recorded as “binds”.

The target in a further assay is T2, AR1FLAG (solubilized receptor: extracellular domain of human AR1 with FLAG tag at the C terminus), … (human, UniProt P17181 28-436, biotin-labeled (NHS-PEO4-Biotin)).
T2 construct: extracellular domain; captured on streptavidin plates for the phage ELISA; also called biotin-labeled AR1FLAG; AR1 chain of type-I interferon receptor; not shown: FLAG tag at the C terminus
T2 sequence (looked up): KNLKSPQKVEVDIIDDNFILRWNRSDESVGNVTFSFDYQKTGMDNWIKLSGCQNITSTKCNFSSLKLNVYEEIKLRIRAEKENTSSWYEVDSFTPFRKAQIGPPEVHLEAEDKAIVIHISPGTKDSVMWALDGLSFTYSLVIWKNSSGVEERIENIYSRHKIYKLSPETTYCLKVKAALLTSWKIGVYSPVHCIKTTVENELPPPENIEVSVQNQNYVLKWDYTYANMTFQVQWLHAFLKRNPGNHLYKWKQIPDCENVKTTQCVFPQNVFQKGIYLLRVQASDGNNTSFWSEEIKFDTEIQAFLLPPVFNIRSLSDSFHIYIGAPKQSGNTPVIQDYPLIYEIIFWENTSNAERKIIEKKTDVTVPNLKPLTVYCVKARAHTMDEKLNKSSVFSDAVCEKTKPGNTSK
The assay is described as follows: phage ELISA, biotin-labeled AR1FLAG on streptavidin plates, anti-M13-HRP detection. How it is done: as §1
Turning to B11, the binding result was “binds”.

Turning to B12, the binding result is “binds”.
